The assay has as its target T1, mouse mMLH1 (mouse, UniProt Q9JK91 1-760).
T1 sequence (looked up): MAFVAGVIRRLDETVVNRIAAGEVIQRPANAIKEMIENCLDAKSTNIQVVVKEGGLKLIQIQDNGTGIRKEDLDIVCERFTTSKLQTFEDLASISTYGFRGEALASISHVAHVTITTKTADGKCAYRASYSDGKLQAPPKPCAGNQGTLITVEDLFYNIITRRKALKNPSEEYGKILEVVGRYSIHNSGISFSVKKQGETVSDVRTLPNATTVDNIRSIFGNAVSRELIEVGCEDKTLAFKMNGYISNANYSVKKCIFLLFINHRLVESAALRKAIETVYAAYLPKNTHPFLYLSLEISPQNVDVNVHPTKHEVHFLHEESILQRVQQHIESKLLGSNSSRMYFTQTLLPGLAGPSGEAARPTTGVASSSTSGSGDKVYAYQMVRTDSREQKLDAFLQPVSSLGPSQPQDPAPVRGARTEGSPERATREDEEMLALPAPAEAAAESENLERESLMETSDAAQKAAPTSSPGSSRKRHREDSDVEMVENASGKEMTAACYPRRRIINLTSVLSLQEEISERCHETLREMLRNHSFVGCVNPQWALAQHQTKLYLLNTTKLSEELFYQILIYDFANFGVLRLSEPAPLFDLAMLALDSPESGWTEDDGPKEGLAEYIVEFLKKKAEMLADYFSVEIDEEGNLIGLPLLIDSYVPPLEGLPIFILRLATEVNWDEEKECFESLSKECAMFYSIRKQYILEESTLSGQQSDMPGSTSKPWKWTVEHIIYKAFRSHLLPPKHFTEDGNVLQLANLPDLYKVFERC
Nature of the assay: pull-down.

B1: GST-hRad9 (natural protein, human, UniProt Q99638 1-391, looked up)
chain: MKCLVTGGNVKVLGKAVHSLSRIGDELYLEPLEDGLSLRTVNSSRSAYACFLFAPLFFQQYQAATPGQDLLRCKILMKSFLSVFRSLAMLEKTVEKCCISLNGRSSRLVVQLHCKFGVRKTHNLSFQDCESLQAVFDPASCPHMLRAPARVLGEAVLPFSPALAEVTLGIGRGRRVILRSYHEEEADSTAKAMVTEMCLGEEDFQQLQAQEGVAITFCLKEFRGLLSFAESANLNLSIHFDAPGRPAIFTIKDSLLDGHFVLATLSDTDSHSQDLGSPERHQPVPQLQAHSTPHPDDFANDDIDSYMIAMETTIGNEGSRVLPSISLSPGPQPPKSPGPHSEEEDEAEPSTVPGTPPPKKFRSLFFGSILAPVRSPQGPSPVLAEDSEGEG
As to B1, the binding result is recorded as “binds”.

The values are drawn from publication PMC2582629 (Nucleic Acids Research, 2008).
